From US20230380451A1, “MEANS AND METHODS TO DETOXIFY MYCOTOXINS” (priority 2020, published 2023)
Like-named read-outs stand apart in the source and are kept apart here.

Legend:
[1] = assay type: biochemical; settings: for temperature of maximum DON degradation activity (temperature optimum): 14.9° C. to 55.7° C. tested; for pH of maximum DON degradation activity (pH optimum): pH 2 to pH 10 tested, 30° C.
Description: (§1) To determine the transformation of DON to epi-THS by Akr I-III, described herein, the following assay was performed. An assay buffer was prepared containing 40 ppm DON, 1 mM NADPH in Teorell Stenhagen (TS) buffer, pH 6.0 (Östling and Virtama, Acta Physiologica Scandinavica, 1946, 11:4, 289-293). Tubes containing the assay buffer were transferred in a heating block at 30° C. The reaction was started by addition of Akr I-III to a final concentration of 200 nM in a final reaction volume of 200 μL. Samples were taken before reaction start, and 2, 5, 10, 15 and 20 min after reaction start. DON transformation reactions in these samples were stopped by mixing with absolute methanol at a 1:2 ratio, followed by a 1:100 dilution with 40% methanol. The concentrations of DON and epi-THS in the samples were determined with liquid chromatography-mass spectrometry (LC-MS) on a Sciex 5500 triple quadrupole mass spectrometer coupled to Agilent 1290 series UHPLC system, using the following MS parameters: Acquisition duration: 4 min; Scan Type: MRM (MRM); Polarity: Negative; Ion Source: Turbo Spray.
For LC, eluent A was 5% methanol, 94.9% water (ultrapure), 0.1% acetic acid, and eluent B was 99.9% methanol, 0.1% acetic acid, using a Phenomenex Kinetex 2.6 μm biphenyl 150×2.1 mm column, an injection volume of 1 μL and the protocol shown in Table 3.
By applying the DON transformation assay basically as described in Example 3, but at pH values ranging from pH 2 to pH 10, the pH optima for DON degradation of Akr I-III (SEQ ID NOs: 1-3) were determined. Akr I and Akr II reached maximum activities at pH 6.0, Akr III at pH 6.5.
By applying the DON transformation assay basically as described in Example 3, but at different temperatures ranging from 14.9° C. to 55.7° C., the temperature optima for the DON degradation activities of Akr I-III were determined. Akr I maximum activity was shown at approximately 35° C., Akr II at approximately 31° C., and Akr III at temperatures from approximately 28° C. to 33° C. (see FIG. 4). […] For Akr I even at temperatures below 20° C.

[2] = Kinetic parameters of DON transformation (Michaelis-Menten fit); assay type: biochemical; settings: 200 nM enzyme, TS buffer pH 6.0, 1 mM NADPH
Description: as §1
Kinetic parameters were determined by performing the DON transformation assay as described in Example 3. Akr I-III were used at a final concentration of 200 nM in Teorell Stenhagen (TS) buffer, pH 6.0 (Ostling and Virtama, Acta Physiologica Scandinavica, 1946, 11:4, 289-293) further containing 1 mM NADPH and DON at a concentration of either 3.38 μM, 33.78 μM, 135.14 μM, 270.27 μM or 1182.43 μM. The observed reaction rates and the corresponding DON concentrations were fitted to the Michaelis-Menten function used to describe enzyme kinetics. The fitting was done using the program SigmaPlot (Systat Software Inc.) to calculate the maximum DON transformation rate of Akr I-III in the assay (Vmax), the Michaelis constant (KM) and the turnover number (kcat). […].

| Molecule | temperature of maximum DON degradation activity (temperature optimum) [1] | pH of maximum DON degradation activity (pH optimum) [1] | DON degradation ([1]; 14.9° C., after 20 min of incubation) | DON degradation ([1]; pH 4.0, after 30 min) | Vmax (maximum DON transformation rate) [2] [U/mg] | kcat (turnover number) [2] [s⁻¹] | Km ([2]; substrate DON, read-out: KM (Michaelis constant)) [µM] |
| --- | --- | --- | --- | --- | --- | --- | --- |
| Akr II: artificial amino acid sequence, variant of a wild type aldo-keto reductase (protein, ArkII) MRTTEIAQGLKVSNLCIGAGPLGGMPTAFGYDVSEERGIATVQAVFDSPINFMDTSSEYGGSEARIGKVIREGLMPKGFVISSKADAEGEGVGRRGDFSAKQVRASFELSLERLGLTHLDVYFLHDPEKFPFEQVMARGGAMEELLRLKDEGLVGLVGVAGGDVLEMARYVDTGSLDILLNYGRYTLLDRSADSLITKVSDAGMAFLNAGPYASGLLAAPRGGSAWYQYAPPDATALQAVDQLHELCESFDVSLRSVALQFSMRDPRITSTVVGLSRPERVRALLDDEAAEIPAELWEQLPAPLNGDIVLPG | approximately 31 °C | 6.0 | – | – | – | – | – |
| Akr III: artificial amino acid sequence, variant of a wild type aldo-keto reductase (protein, ArkIII) MRTTEIAQGLKVSNLCIGAGPLGGMPTAFGYDVSEERGIATVQAVFDSPINFMDTSSEYGGSEARIGKVIREGRMPKGFVISSKADAEGEGVGRRGDFSAKQVRASFELSLERLGLTHLDVYFLHDPEKFPFEQVMARGGAMEELLRLKDEGLVGLVGVAGGDVLEMARYVDTGSLDILLNYGRYTILDRSADSLITKVSDAGMAFLNAGPYASGLLAAPRGGSAWYQYAPPDATALQAVDQLHELCESFDVSLRSVALQFSMRDPRITSTVVGLSRPERVRALLDDEAAEIPAELWEQLPAPLNGDIVLPR | – | 6.5 | – | – | – | – | – |
| Akr I: artificial amino acid sequence, variant of a wild type aldo-keto reductase (protein, ArkI) MRTTEISQGLKVSNLCIGAGPLGGMPTAFGYDVSEERGIATVQAVFDSPINFMDTSSEYGDSEVRIGKVIREGRMPKGFVIATKADAEGDGTARRGDFSAKQVRASFELSLERLGLTHIDVYFLHDPEKFPFEHVMARGGAMEELLRLKDEGLVGLVGVAGGDVVEMARYVDTGNLDILLNYGRYTLLDRSADSLIDKASDAGMAFLNAGPYASGLLAAPRGGSAWYQYAPPNADALQAVDQLHELCESFDVSLRSVALQFSMRDPRITSTVVGLSRPERVRALLDDAAAEIPAELWDQLPAPLNLPWNSLA | approximately 35 °C | 6.0 | complete DON degradation | complete degradation | 8471 | 5.08 | 143 |
